Drawing on article PMC12655336, “Study on the High-Efficiency Expression of Horseradish Peroxidase in Pichia pastoris” (Molecules, 2025), this text covers Km and kcat for 2 proteins.

Substrate in data set [1]: Nc1ccccc1N
In words: spectrophotometric oxidation, Michaelis-Menten fit. It counts as biochemical, Armoracia rusticana. To be noted: 1 mM H2O2, 37 °C, 492 nm, deglycosylated enzyme. From the text: (§1) spectrophotometric oxidation, Michaelis-Menten fit on Degly-HRP

Substrate in data set [2]: Cc1cc(-c2cc(C)c(N)c(C)c2)cc(C)c1N
Description: spectrophotometric oxidation, Michaelis-Menten fit. It counts as biochemical, Armoracia rusticana. As to conditions: 1 mM H2O2, 37 °C, 450 nm, deglycosylated enzyme.
Source text: as §1

Substrate in data set [3]: CCn1c(=NN=c2sc3cc(S(=O)(=O)O)ccc3n2CC)sc2cc(S(=O)(=O)O)ccc21
Description: spectrophotometric oxidation, Michaelis-Menten fit. Format: biochemical, Armoracia rusticana. To be noted: 1 mM H2O2, 37 °C, 415 nm, deglycosylated enzyme.
Source text: as §1

Substrate in the data set “purified protein”: COc1ccccc1O
Description: purified protein. To be noted: 1 mM H2O2, 37 °C, 436 nm.

Substrate in data set [4]: Nc1ccccc1N
In words: spectrophotometric oxidation, Michaelis-Menten fit. As to conditions: 1 mM H2O2, 37 °C, 492 nm, glycosylated enzyme. It counts as biochemical, Armoracia rusticana. From the text:
(§2) spectrophotometric oxidation, Michaelis-Menten fit on HRP-C (W-HRP)

Substrate in data set [5]: CCn1c(=NN=c2sc3cc(S(=O)(=O)O)ccc3n2CC)sc2cc(S(=O)(=O)O)ccc21
In words: spectrophotometric oxidation, Michaelis-Menten fit. As to conditions: 1 mM H2O2, 37 °C, 415 nm, glycosylated enzyme. It counts as biochemical, Armoracia rusticana.
Source text: as §2

B1: Degly-HRP (Armoracia rusticana) (protein)
chain: QLTPTFYDNSCPNVSNIVRDTIVNELRSDPRIAASILRLHFHDCFVNGCDASILLDNTTSFRTEKDAFGNANSARGFPVIDRMKAAVESACPRTVSCADLLTIAAQQSVTLAGGPSWRVPLGRRDSLQAFLDLANANLPAPFFTLPQLKDSFRNVGLNRSSDLVALSGGHTFGKNQCRFIMDRLYNFSNTGLPDPTLNTTYLQTLRGLCPLNGNLSALVDFDLRTPTIFDNKYYVNLEEQKGLIQSDQELFSSPNATDTIPLVRSFANSTQTFFNAFVEAMDRMGNITPLTGTQGQIRLNCRVVNSNS
notes: same HRP-C from Pichia pastoris GS115, His-tagged, Ni-NTA purified; deglycosylated with EndoH (O-glycans may remain)
Regarding B1, the Km in data set [1] amounted to 41 µM; in data set [2], 96 µM; in data set [3], 45.35 µM; in the data set “purified protein” (deglycosylated enzyme) it was 20.59 µM. Further, the kcat stood at 745 s⁻¹ in data set [1], 238 s⁻¹ in data set [2], 238 s⁻¹ in data set [3] and 270 s⁻¹ in the data set “purified protein” (deglycosylated enzyme).

B2: HRP-C (W-HRP) (Armoracia rusticana) (protein)
chain: QLTPTFYDNSCPNVSNIVRDTIVNELRSDPRIAASILRLHFHDCFVNGCDASILLDNTTSFRTEKDAFGNANSARGFPVIDRMKAAVESACPRTVSCADLLTIAAQQSVTLAGGPSWRVPLGRRDSLQAFLDLANANLPAPFFTLPQLKDSFRNVGLNRSSDLVALSGGHTFGKNQCRFIMDRLYNFSNTGLPDPTLNTTYLQTLRGLCPLNGNLSALVDFDLRTPTIFDNKYYVNLEEQKGLIQSDQELFSSPNATDTIPLVRSFANSTQTFFNAFVEAMDRMGNITPLTGTQGQIRLNCRVVNSNS
notes: codon-optimised synthetic HRP-C gene, secreted from Pichia pastoris GS115 with MF4I signal peptide, His-tagged, Ni-NTA purified; glycosylated (not EndoH treated)
Regarding B2, the kcat in the data set “purified protein” (glycosylated enzyme) is 291 s⁻¹; in data set [4], 747 s⁻¹; in data set [5], 267 s⁻¹. Moreover, the Km in data set [4] was 36 µM; in data set [5] it was 48.55 µM.

By Km is commonly meant the substrate concentration at which the rate is half of its maximum. The term kcat denotes the maximal rate divided by the concentration of active sites.
